US20130115166A1 (CEPHALON AUSTRALIA, published 2013)

T1: Human IL-23 (human, UniProt P29460 23-328; Q9NPF7 20-189)
T1 construct: Heterodimer of IL-12p40 covalently linked to IL-23p19, purchased (Ebiosciences or RnD Systems); also called hIL-23; rhIL23
T1 sequence 1: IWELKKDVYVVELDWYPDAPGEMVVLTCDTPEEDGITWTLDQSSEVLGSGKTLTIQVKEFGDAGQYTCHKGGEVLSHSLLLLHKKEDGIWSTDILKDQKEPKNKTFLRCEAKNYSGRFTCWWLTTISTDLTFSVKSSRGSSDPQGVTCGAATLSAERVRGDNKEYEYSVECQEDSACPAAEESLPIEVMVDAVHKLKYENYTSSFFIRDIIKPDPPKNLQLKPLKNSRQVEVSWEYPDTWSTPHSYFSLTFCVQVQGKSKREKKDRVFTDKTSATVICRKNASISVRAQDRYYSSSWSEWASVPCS
T1 sequence 2: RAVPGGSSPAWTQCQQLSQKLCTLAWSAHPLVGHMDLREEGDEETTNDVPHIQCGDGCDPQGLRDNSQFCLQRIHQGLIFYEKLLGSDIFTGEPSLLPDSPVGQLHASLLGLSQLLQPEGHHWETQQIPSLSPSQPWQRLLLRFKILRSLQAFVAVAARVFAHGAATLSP

T2: IL-23 (HEK293E-derived) (human, UniProt P29460 23-328; Q9NPF7 20-189)
T2 sequence 1: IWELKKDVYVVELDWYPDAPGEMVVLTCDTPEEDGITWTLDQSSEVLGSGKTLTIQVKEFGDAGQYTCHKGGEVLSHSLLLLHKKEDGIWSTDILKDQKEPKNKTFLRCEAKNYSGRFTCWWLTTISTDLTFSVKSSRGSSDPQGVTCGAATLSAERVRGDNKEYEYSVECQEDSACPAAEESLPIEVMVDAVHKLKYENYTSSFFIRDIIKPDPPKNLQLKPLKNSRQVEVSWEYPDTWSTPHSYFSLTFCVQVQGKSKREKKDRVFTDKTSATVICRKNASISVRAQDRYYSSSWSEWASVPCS
T2 sequence 2: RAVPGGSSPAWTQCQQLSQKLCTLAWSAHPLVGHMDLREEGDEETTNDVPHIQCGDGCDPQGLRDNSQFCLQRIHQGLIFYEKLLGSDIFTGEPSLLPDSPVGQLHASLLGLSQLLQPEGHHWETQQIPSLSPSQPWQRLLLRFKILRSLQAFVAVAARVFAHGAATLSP

T3: IL-12p40 (human, UniProt P29460 23-328)
T3 construct: also called IL-12p40 subunit
T3 sequence: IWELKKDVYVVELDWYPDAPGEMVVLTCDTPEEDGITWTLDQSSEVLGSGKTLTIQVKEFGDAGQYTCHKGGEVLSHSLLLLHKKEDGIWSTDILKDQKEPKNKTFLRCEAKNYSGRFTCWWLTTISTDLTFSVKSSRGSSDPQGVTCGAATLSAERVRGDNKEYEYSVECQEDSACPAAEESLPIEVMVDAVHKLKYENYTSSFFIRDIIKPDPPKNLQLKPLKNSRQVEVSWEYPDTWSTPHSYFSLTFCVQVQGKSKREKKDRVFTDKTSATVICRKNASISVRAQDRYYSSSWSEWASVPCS

T4: IL-23p19 (human, UniProt Q9NPF7 20-189)
T4 construct: also called IL-23p19 subunit
T4 sequence: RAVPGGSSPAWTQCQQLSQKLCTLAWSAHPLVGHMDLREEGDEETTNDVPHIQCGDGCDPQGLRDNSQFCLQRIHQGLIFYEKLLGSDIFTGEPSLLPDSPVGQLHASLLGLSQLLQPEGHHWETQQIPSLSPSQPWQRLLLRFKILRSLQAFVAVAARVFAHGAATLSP


Assays:
[1] = biological target: T1, Human IL-23; assay: SPR (Biacore 3000), antibody captured on Protein A, IL-23 as analyte, 1:1 Langmuir fit; below the limit of sensitivity
Experimental: (§1) Using a Biacore 3000, Protein A (Pierce) was immobilized on a CM5 chip using amine coupling chemistry to give 3000 Response Units (RU). Antibody was captured on the surface of the chip in flow cell 2 or 4 with a control surface in flow cell 1 or 3. Human IL-23 was then passed over both flow cells and the response units measured. The surface was then regenerated with 10 mM glycine pH 2.5. For a kinetic run this process was repeated with 5 dilutions of IL-23. Data was double referenced using an injection of running buffer before being fitted using a 1:1 Langmuir equation to determine ka, kd and KD.

[2] = biological target: T1, Human IL-23; assay: SPR (Biacore 3000), antibody captured on Protein A, IL-23 as analyte, 1:1 Langmuir fit
Experimental: as §1

[3] = biological target: T5, IL-23Fc (human, UniProt Q9NPF7 20-189); assay: ELISA, coated human IL-23 (IL-23Fc), biotinylated antibody, streptavidin-HRP, mOD at 450 nm [panel A]
T5 construct: Produced in HEK293E
Experimental: A NuncMaxisorp 96-well plate was coated with human IL-23 diluted to […] in carbonate coating buffer and overnight incubation at 4° C. The plate was washed (three times in 1×PBS-Tween20 (0.05%)) then blocked for an hour with 1% BSA in PBS at room temperature. Biotinylated antibody was prepared starting from 10 μg/ml and serial half log dilutions were performed then 100 μl was added to the plate and incubated for an hour. The plate was washed and Streptavidin-HRP at 1:2000 dilution was added to all wells and further incubated for an hour. The plate was washed and subsequently developed using TMB (Sigma). The color development reaction was stopped by addition of an equal volume of 1M HCl. Absorbance of the resulting reaction was determined using a plate-based spectrophotometer.

[4] = biological target: T6, IL-12p40Fc (human); assay: ELISA, coated human IL-12p40-Fc, biotinylated antibody, streptavidin-HRP, mOD at 450 nm [panel C]
T6 construct: also called human p40-Fc; human IL-12p40-Fc fusion protein

[5] = biological target: T2, IL-23 (HEK293E-derived); assay: SPR (Biacore), antibody supernatant captured on Protein A, IL-23 at 5 ug/ml as analyte
Experimental: As a result of the humanization processes 22 humanized antibodies were produced and tested for their ability to bind human IL-23 (Table 4). Briefly, 2 mL transfections of the 22 humanized antibodies were screened for antibody expression level and binding activity via SPR. Protein A was immobilized onto FC1 and FC2 (or alternatively FC3 and FC4) of a CM5 research grade sensor chip using amine coupling, giving approximately 3000 RU. FC1 was used as a blank throughout the experiments. The experiments were run in HBS-P buffer (SPR). Antibody-containing cell culture supernatants were diluted in 10× HBS-P buffer at a ratio of 9:1. The diluted antibody was injected over FC2 at a flow rate of 20 μl/min. IL-23 (HEK293E-derived) was passed over the surface of FC1 and FC2 at a concentrations of 5 μg/ml as a kinetic injection with 5 min dissociation time across both
FC. Regeneration of the surface was performed using 10 mM Glycine, pH 1.5. The sensorgram data from FC2 were subtracted from FC1 and a buffer only control. […] The Sequence IDs of the variable heavy and light chains for each antibody are given in the Table 4 along with kd (off-rates) of selected tested antibodies.

[6] = biological target: T1, Human IL-23; assay: competition ELISA: biotinylated hIL-23 (100 ng/ml) pre-incubated with antibody, binding to coated hIL23R-HIS detected with streptavidin-HRP; blocked partner IL-23R
[7] = biological target: T3, IL-12p40; assay: ELISA, coated antigen IL-12p40, mOD at 450 nm; blank = coating antigen omitted [panel 8-22]
[8] = biological target: T4, IL-23p19; assay: ELISA, coated antigen IL-23p19, mOD at 450 nm; blank = coating antigen omitted [panel 8-22]
[9] = biological target: T4, IL-23p19; assay: ELISA, coated antigen IL-23p19, mOD at 450 nm; blank = coating antigen omitted [panel 20-4]
[10] = biological target: T3, IL-12p40; assay: ELISA, coated antigen IL-12p40, mOD at 450 nm; blank = coating antigen omitted [panel 20-4]
[11] = biological target: T4, IL-23p19; assay: ELISA, coated antigen IL-23p19, mOD at 450 nm; blank = coating antigen omitted [panel 6-22]
[12] = biological target: T3, IL-12p40; assay: ELISA, coated antigen IL-12p40, mOD at 450 nm; blank = coating antigen omitted [panel 6-22]

| Kd [1] [nM] | koff [1] [s⁻¹] | kon [2] [M⁻¹ s⁻¹] | EC50 (read off the curve) [3] [µg/mL] | binding result [4] | koff [5] [s⁻¹] | IC50 (read off the curve) [6] [µg/mL] | binding result [7] | Kd [2] [nM] | koff [2] [s⁻¹] | binding result [8] | binding result [9] | binding result [10] | binding result [11] | binding result [12] | Binder |
| --- | --- | --- | --- | --- | --- | --- | --- | --- | --- | --- | --- | --- | --- | --- | --- |
| < 0.1 | < 1e-05 | 542000 | ~0.09 | no binding (tested: 10 ug/ml) | 5.98e-05 | ~0.04 |  |  |  |  |  |  |  |  | E11E7Chimera (antibody, human IgG1, kappa, V domains shown, Rat E11E7 variable regions on human constant regions; also called E11E7 chimeric antibody) VH: QVQLKESGPGLVQPSQTLSLTCTVSGFSLISYNVHWVRQPRGKGLEWMGVIWTGGSTDYNSVLKSRLSISRDTSKSQVFLKMHSLQTEDIGTYYCARDKYGLFPGYFDYWGQGVMVTVSS VL: DIVMTQSPFSLAVSEGEMVTINCKPSQSLLSSGNRKNYLAWYQQKPGQSPKLLIYYASTRQSGVPDRFIGSGSGTDFTLTISDVQAEDLADYYCLQHFNYPWTFGGGTKLELKR |
|  |  | 468000 |  |  | 0.000117 |  | no binding (tested: 10 ug/mL) | 0.421 | 0.000197 | no binding (tested: 10 ug/mL) |  |  |  |  | 8-22 (antibody, human IgG1, kappa, V domains shown, Humanized form of E11E7; also called humanized antibody 8-22) VH: QVQLQESGPGLVKPSETLSLTCTVSGFSLISYNVHWIRQPPGKGLEWIGVIWTGGSTDYNPSLKSRVTISRDTSKNQFSLKLSSVTAADTAVYYCARDKYGLFPGYFDYWGQGTLVTVSS VL: DIVMTQSPDSLAVSLGERATINCKPSQSLLSSGNRKNYLAWYQQKPGQPPKLLIYYASTRQSGVPDRFSGSGSGTDFTLTISSLQAEDVAVYYCLQHFNYPWTFGQGTKLEIKR |
|  |  | 521000 |  |  | 0.000191 |  |  | 0.388 | 0.000202 |  |  |  |  |  | 21-4 (antibody, human IgG1, kappa, V domains shown, Humanized form of E11E7; also called humanized antibody 21-4) VH: EVQLQQWGAGLLKPSETLSLTCAVYGFSLISYNVHWIRQPPGKGLEWIGVIWTGGSTDYNSVLKSRVTISRDTSKNQFSLKLSSVTAADTAVYYCARDKYGLFPGYFDYWGQGTLVTVSS VL: EIVLTQSPATLSLSPGERATLSCKPSQSLLSSGNRKNYLAWYQQKPGQAPRLLIYYASTRQSGIPDRFSGSGSGTDFTLTISRLEPEDFAVYYCLQHFNYPWTFGGGTKVEIKR |
|  |  | 348000 |  |  | 0.000616 |  |  | 2.11 | 0.000733 |  |  |  |  |  | 1-4 (antibody, human IgG1, kappa, V domains shown, Humanized form of E11E7; also called humanized antibody 1-4) VH: EVQLQQWGAGLLKPSETLSLTCAVYGGSFSSYNVHWIRQPPGKGLEWIGVIWTGGSTDYNSVLKSRVTISRDTSKNQFSLKLSSVTAADTAVYYCARDKYGLFPGYFDYWGQGTLVTVSS VL: EIVLTQSPATLSLSPGERATLSCKPSQSLLSSGNRKNYLAWYQQKPGQAPRLLIYYASTRQSGIPDRFSGSGSGTDFTLTISRLEPEDFAVYYCLQHFNYPWTFGGGTKVEIKR |
|  |  | 429000 |  |  | 0.000231 |  |  | 0.47 | 0.000202 |  | no binding (tested: 10 ug/mL) | no binding (tested: 10 ug/mL) |  |  | 20-4 (antibody, human IgG1, kappa, V domains shown, Humanized form of E11E7; also called humanized antibody 20-4) VH: EVQLQQWGAGLLKPSETLSLTCAVYGFSLISYNVHWIRQPPGKGLEWIGVIWTGGSTDYNSVLKSRVTISVDTSKNQFSLKLSSVTAADTAVYYCARDKYGLFPGYFDYWGQGTLVTVSS VL: EIVLTQSPATLSLSPGERATLSCKPSQSLLSSGNRKNYLAWYQQKPGQAPRLLIYYASTRQSGIPDRFSGSGSGTDFTLTISRLEPEDFAVYYCLQHFNYPWTFGGGTKVEIKR |
|  |  | 465000 |  |  | 0.000241 |  |  | 0.86 | 0.0004 |  |  |  | no binding (tested: 10 ug/mL) | no binding (tested: 10 ug/mL) | 6-22 (antibody, human IgG1, kappa, V domains shown, Humanized form of E11E7; also called humanized antibody 6-22) VH: QVQLQESGPGLVKPSETLSLTCTVSGFSISSYNVHWIRQPPGKGLEWIGVIWTGGSTDYNPSLKSRVTISRDTSKNQFSLKLSSVTAADTAVYYCARDKYGLFPGYFDYWGQGTLVTVSS VL: DIVMTQSPDSLAVSLGERATINCKPSQSLLSSGNRKNYLAWYQQKPGQPPKLLIYYASTRQSGVPDRFSGSGSGTDFTLTISSLQAEDVAVYYCLQHFNYPWTFGQGTKLEIKR |
